Assay results as given in patent CN111518208A (QICHEN BAITAI BEIJING MEDICAL TECH CO LTD, dated 2020).
Residue numbers refer to the chain shown, from its start.

B1: 抗人CD47单克隆抗体A3 (antibody, V domains shown)
VH: QVQLQQPGAELVRPGASVKLSCKASGHTFTNYWMNWIKQRPEQGLEWIGNIDPYDSETHYNQKFKDKAILTVGKSSSTAYMQLSSLTSEDSAVYYCAIWRGYALDYWGQGTSVTVSS
VL: CDVQITQSPSYLAASPGETITINCRASKSISKFLAWYQEKPGKTNNLLIYSGSTLQSGIPSRFSGSGSGTDFTLTISSLEPEDFAMYYCQQHNEYPWTFGGGTKLEIK
B2: 抗人CD47单克隆抗体A1 (antibody, V domains shown)
VH: EFQLQQSGPELVKPGASVKMSCKASGYTFTNYVLHWVKQKPGQGLEWIGYFNPYNDDSKYNEKFKGKATLTSDKSSSTAYMELSSLTSEDSAVYYCARGGYYSMDYWGQGTTVTVSS
VL: DVMTQTPLSLPVSLGDQASISCRASQSLAHSNGYTYLQWYLQKPGQSPKLLIYKVSKRFSGVPDRFSGSGSGTDFTLKISRVEAEDLGVYFCSQSTHVPYTFGQGTKVEIK
B3: 抗人CD47单克隆抗体A2 (antibody, V domains shown)
VH: EVQVQQSGPELVKPGASVKISCKASGYSFTGYFMNWVKQSHGKSLEWIGRINPYNGDTFYNQKFKGKATLTVDKSSSTAHMELLSLTSEDSAVYYCGRGGYGGMDYWGQGTSVTVSS
VL: DVLMTQTPLSLPVSLGDQASISCRSSQSIVHSNGNTYLEWYLQKPGQSPKLLIYKVSNRFSGVPDRFSGSGSGTDFTLKISRVEAEDLGVYYCFQGSHVPYTFGGGTKLEIK
B4: 抗人CD47单克隆抗体A5 (antibody, V domains shown)
VH: EVQLQQSGPELVKPGASMRMSCKASGYSFTGYTMHWVKQSHGTNLEWIGLINPYTGGTNYNQKFKGKATLTLDKSSSTAYMELLSLTSEDFAVYYCARMGLAWFAYWGQGTLVTVSA
VL: B3 VL with L3V, I29L, L38F, E39H, Y92F, F94S, G96S, S97T, I111M
B5: 抗人CD47单克隆抗体A6 (antibody, V domains shown)
VH: QVQLQQSGAELVRPGASVTLSCKASGYSFTDSEMHWVKQTPVYGLEWTGVIDPETGNSAYNQKFKGKATLTADKSSNTAYMELRSLTSEDSAVYYCTRGGVFGYPFDYWGQGTTLTVSS
VL: ENVLTQSPAIMAASLGQKVTMTCSATSSVRSSYLHWYQQKSGASPKPLIHRTSNLASGVPARFSGSGSGTSYSLTISSVEAEDDATYYCQQWRGYPYTFGGGTKLEIK

Molecular target: T1, 人CD47蛋白胞外区融合蛋白(hCD47-ECD-6His) (human, UniProt Q08722 19-139, limits assumed)
T1 construct: extracellular domain; Made in FreeStyle 293F cells, purified on a nickel column; not shown: linker peptide-6His (连接肽-6His)
Assay: ELISA, hCD47-ECD-6His coated, goat anti-mouse IgG-HRP

T1 sequence (Q08722 19-139 limits assumed): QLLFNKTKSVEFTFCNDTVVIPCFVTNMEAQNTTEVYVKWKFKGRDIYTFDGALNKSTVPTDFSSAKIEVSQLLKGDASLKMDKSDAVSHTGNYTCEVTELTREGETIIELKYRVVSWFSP

Row | EC50 [µg/mL] | Binder
1 | 0.01 | B1
2 | 0.016 | B2
3 | 0.007 | B3
4 | 0.016 | B4
5 | 0.01 | B5

Molecular target: 细胞膜表面表达的人CD47蛋白 (human, UniProt Q08722 19-323)
Assay: cell-based or functional assay

细胞膜表面表达的人CD47蛋白, sequence (Q08722 19-323): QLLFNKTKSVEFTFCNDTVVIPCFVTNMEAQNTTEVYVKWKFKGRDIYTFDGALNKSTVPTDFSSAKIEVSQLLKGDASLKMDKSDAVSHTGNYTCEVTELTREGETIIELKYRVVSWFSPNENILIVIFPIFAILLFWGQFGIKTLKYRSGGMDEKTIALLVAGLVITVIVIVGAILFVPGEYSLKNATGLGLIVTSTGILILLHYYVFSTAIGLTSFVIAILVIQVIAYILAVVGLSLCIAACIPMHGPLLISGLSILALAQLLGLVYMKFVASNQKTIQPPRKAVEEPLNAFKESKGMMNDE

Row | 促吞噬曲线的EC50值 (ATP法, C57BL小鼠腹腔原代巨噬细胞对Raji细胞的吞噬) | Binder
6 | 0.00391 微克/毫升 | B1
7 | 0.00439 微克/毫升 | B2
8 | 0.00462 微克/毫升 | B3
9 | 0.00665 微克/毫升 | B4
10 | 0.00568 微克/毫升 | B5
